Among the data in article PMC7949057 (2021) are Kd values, retold here.

For assay [1], the target named is T1, Recombinant hamster GRP78 protein (hamster, UniProt G3I8R9 19-654, RED-tris-NTA dye held on the His-tag). Put plainly: MST.
The target of assay [2] is Substrate-binding domain (SBD) of GRP78 (RED-tris-NTA dye held on the His-tag). Description: MST.
Assay [3] addresses T1, Recombinant hamster GRP78 protein. Description: MST; 1 uM CaCl2.
The target is the same in assay [4]. Put plainly: MST; 100 uM CaCl2.
Assay [5] shares this target. Description: MST; 200 uM CaCl2.

T1 sequence (G3I8R9 19-654): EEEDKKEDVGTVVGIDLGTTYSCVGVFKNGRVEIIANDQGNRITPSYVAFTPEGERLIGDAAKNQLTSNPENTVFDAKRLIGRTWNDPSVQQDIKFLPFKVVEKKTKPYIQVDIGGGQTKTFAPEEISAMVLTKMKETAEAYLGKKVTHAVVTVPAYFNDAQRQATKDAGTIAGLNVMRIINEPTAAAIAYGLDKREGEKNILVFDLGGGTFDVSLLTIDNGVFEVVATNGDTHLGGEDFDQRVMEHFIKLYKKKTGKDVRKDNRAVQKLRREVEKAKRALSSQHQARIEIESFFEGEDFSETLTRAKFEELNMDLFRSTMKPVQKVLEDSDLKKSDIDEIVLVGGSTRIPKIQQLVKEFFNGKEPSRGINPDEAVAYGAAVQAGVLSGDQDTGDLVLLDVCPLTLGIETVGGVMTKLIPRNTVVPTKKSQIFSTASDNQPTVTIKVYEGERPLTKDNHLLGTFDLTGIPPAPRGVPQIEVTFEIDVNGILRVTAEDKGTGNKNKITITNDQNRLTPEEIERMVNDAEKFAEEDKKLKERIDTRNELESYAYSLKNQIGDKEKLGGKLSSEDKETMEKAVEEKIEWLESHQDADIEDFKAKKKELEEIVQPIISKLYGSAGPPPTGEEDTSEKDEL
Sequence of Substrate-binding domain (SBD) of GRP78 (RED-tris-NTA dye held on the His-tag) (chain, as listed by the source): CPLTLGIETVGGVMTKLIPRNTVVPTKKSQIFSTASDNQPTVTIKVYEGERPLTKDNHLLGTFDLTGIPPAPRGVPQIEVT

B1: Recombinant human MANF protein (natural protein)
chain: LRPGDCEVCISYLGRFYQDLKDRDVTFSPATIENELIKFCREARGKENRLCYYIGATDDAATKIINEVSKPLAHHIPVEKICEKLKKKDSQICELKYDKQIDLSTVDLKKLRVKELKKILDDWGETCKGCAEKSDYIRKINELMPKYAPKAASARTDL
In general, Kd refers to a measure of binding affinity in units of concentration. As to B1, the Kd in assay [1] was found to be 216 nM; in assay [2] it was 1400 nM; in assay [3], 570 nM; in assay [4] it was 500 nM; in assay [5], 430 nM.

B2: Recombinant MANF E153A mutant protein (natural protein)
chain: LRPGDCEVCISYLGRFYQDLKDRDVTFSPATIENELIKFCREARGKENRLCYYIGATDDAATKIINEVSKPLAHHIPVEKICEKLKKKDSQICELKYDKQIDLSTVDLKKLRVKELKKILDDWGETCKGCAAKSDYIRKINELMPKYAPKAASARTDL
With B2, in assay [1], the Kd stood at 269 nM.
